Measurements: paper PMC5001605 (Nucleic Acids Research, 2016)

B1: Methanococcus jannaschii Kae1 (mjKae1), amino acids 1-328 (domain or fragment)
chain: MICLGLEGTAEKTGVGIVTSDGEVLFNKTIMYKPPKQGINPREAADHHAETFPKLIKEAFEVVDKNEIDLIAFSQGPGLGPSLRVTATVARTLSLTLKKPIIGVNHCIAHIEIGKLTTEAEDPLTLYVSGGNTQVIAYVSKKYRVFGETLDIAVGNCLDQFARYVNLPHPGGPYIEELARKGKKLVDLPYTVKGMDIAFSGLLTAAMRAYDAGERLEDICYSLQEYAFSMLTEITERALAHTNKGEVMLVGGVAANNRLREMLKAMCEGQNVDFYVPPKEFCGDNGAMIAWLGLLMHKNGRWMSLDETKIIPNYRTDMVEVNWIKEIK
B2: Pyrococcus furiosus Kae1 (pfuKae1) (natural protein)
chain: MIALGIEGTAHTLGIGIVTENKVLANVFDTLKTEKGGIHPKEAAEHHAKLLKPLLRKALEEAGVSMEDIDVIAFSQGPGLGPALRVVATAARALAIKYNKPIVGVNHCIAHVEITKMFGVKDPVGLYVSGGNTQVLALEGGRYRVFGETLDIGIGNALDVFARELGLGFPGGPKIEKLALKGEKYIELPYAVKGMDLSFSGLLTEAIRKYKSGKYRVEDLAYSFQETAFAALVEVTERALAHTEKEEVVLVGGVAANNRLREMLRIMAEDRGVKFFVPPYDLCRDNGAMIAYTGLRMYKAGIKFKLEETIVKQKFRTDEVEVVW
B3: Pyrococcus furiosus Pcc1 (pfuPcc1), full-length (natural protein)
chain: MKAKRVQAKIEIEFPSEDVAKVVYEAVLYEHLSVPYRRSEIDFKLEGKKIILDIKATDSSALRGTVNSYLRWIKAAIDVIEV

How the values were obtained:
[1] = target: B3; assay: SEC-MALS
[2] = target: B3; assay: AUC
[3] = target: B3; assay: SEC-MALS; remark: listed apart in the source
[4] = target: B1; assay: SEC-MALS

Row | Binder | stoichiometry N [1] | stoichiometry N [2] | stoichiometry N [3] | binding result [4]
1 | B1 | 0.5 Kae1 per Pcc1 (1:2) | ~1 Kae1 per Pcc1 (2:2) | 1 Kae1 per Pcc1 (2:2) | –
2 | B2 | – | – | 1 Kae1 per Pcc1 (2:2) | –
3 | B3 | – | – | – | binds
